{"source": "the supplement of paper PMC9732359", "note": "± gives the uncertainty stated by the source."}
{"experiment": "protein stability index of a GFP-peptide fusion (yeast GPS) (PSI 1-4); higher = more stable; sorted into four equal gates, so the index is relative within each strain", "settings": "ubr1∆", "in_short": "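The protein stability index combines read frequencies across sorting gates, each weighted by its gate number and then summed. To obtain those frequencies, a pooled yeast library of GFP fusions to tiled 17-residue yeast protein peptides, on a plasmid also expressing Cherry, was grown to mid-log phase in leucine-free medium. The cells were sorted into four equal gates by GFP/Cherry ratio before plasmid amplification by PCR and Illumina sequencing.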"}
{"sequence": "RAVANRTDATFIRVIGS [RPT1]", "protein stability index": "3.09 ± 0.062"}
{"sequence": "RCMMAAQYFYSGAYSYP [DIS3]", "protein stability index": "2.12 ± 0.11"}
{"sequence": "RCTKIIKGNGESDETTT [RPT1]", "protein stability index": "3.54 ± 0.11"}
{"sequence": "RCWKANIPWDVPGMPAP [PRP8]", "protein stability index": "2.73 ± 0.18"}
{"sequence": "RDCIDISIFSTPGSVSL [PRP8]", "protein stability index": "3.02 ± 0.12"}
{"sequence": "RDGVLTVTLNKNREVVQ [RRP45]", "protein stability index": "2.73 ± 0.088"}
{"sequence": "RDRKLITDKGTVDGRLY [YJL039C/NUP192]", "protein stability index": "3.17 ± 0.076"}
{"sequence": "RDRTSGQKLLAIKYGYE [SRB4]", "protein stability index": "3.23 ± 0.096"}
{"sequence": "RDVELSSDELKVIEEQL [SMC4]", "protein stability index": "3.26 ± 0.055"}
{"sequence": "REAIRPGHEMEDFLDKS [AAR2]", "protein stability index": "3.22 ± 0.036"}
{"sequence": "REDTPLSQNESTRASTV [ISW2]", "protein stability index": "2.97 ± 0.048"}
{"sequence": "REHSLQLFRTNKVQIMI [PRP28]", "protein stability index": "2.07 ± 0.037"}
{"sequence": "REKNALKRLAWQYIVID [ISW2]", "protein stability index": "2.03 ± 0.082"}
{"sequence": "RENIAMLKRFFPGVKGL [SMC1]", "protein stability index": "2.43 ± 0.15"}
{"sequence": "RERRIHVTQEDFELAVG [RPT6]", "protein stability index": "2.61 ± 0.066"}
{"sequence": "REYLEEYKSLFVVGVDN [RPP0]", "protein stability index": "3.24 ± 0.071"}
{"sequence": "RFEVINNETEQLKAEEK [SMC1]", "protein stability index": "2.6 ± 0.12"}
{"sequence": "RFNHLVTRLFFICSIIQ [YML031W/NDC1]", "protein stability index": "1.49 ± 0.039"}
{"sequence": "RFRKAQCPIIERLTNSL [RPS5]", "protein stability index": "2.07 ± 0.21"}
{"sequence": "RFSYSPPKEGNYEIVFD [YMR129W/POM152]", "protein stability index": "3.45 ± 0.16"}
{"sequence": "RFWSFMKTQRFVSNMGF [SIR4]", "protein stability index": "1.68 ± 0.048"}
{"sequence": "RGEIREIEQVCKQVHDK [MED7]", "protein stability index": "2.87 ± 0.073"}
{"sequence": "RGFGKINKQRVPLSDNA [RPL7A]", "protein stability index": "2.91 ± 0.066"}
{"sequence": "RGLTPQEFFFHAMGGRE [RPO21]", "protein stability index": "2.35 ± 0.046"}
{"sequence": "RGVRPYKHIDASGSINR [RPS19A]", "protein stability index": "3.23 ± 0.091"}
{"sequence": "RHHWQYTKASLAKERQK [SSN8]", "protein stability index": "2.14 ± 0.064"}
{"sequence": "RHNKSHTLCNRCGRRSF [RPL37A]", "protein stability index": "3.08 ± 0.039"}
{"sequence": "RHSNALVDILPPDSDSS [RPT3]", "protein stability index": "2.47 ± 0.056"}
{"sequence": "RIFKITEKLSPLASEES [YGL100W/SEH1]", "protein stability index": "2.57 ± 0.032"}
{"sequence": "RIGKHRKHPGGRGMAGG [RPL28]", "protein stability index": "3.22 ± 0.16"}
{"sequence": "RIHTNDNDIMNLGSRTK [SSN3]", "protein stability index": "3.03 ± 0.037"}
{"sequence": "RIIEKSVRRSGALDVEG [RRP45]", "protein stability index": "2.53 ± 0.072"}
{"sequence": "RIISGDQITKMKDRLVE [RPN9]", "protein stability index": "2.69 ± 0.19"}
{"sequence": "RILSTLDRELLKPSMSV [RPT3]", "protein stability index": "2.57 ± 0.15"}
{"sequence": "RIYTNSFIDIMEVLGIE [RPO21]", "protein stability index": "2.81 ± 0.041"}
{"sequence": "RKANREEKLKANKEKKR [RPL24B]", "protein stability index": "2.27 ± 0.053"}
{"sequence": "RKKKFVLDVDPKYAKQK [ISW2]", "protein stability index": "2.66 ± 0.076"}
{"sequence": "RKWAARAASAKIESSVE [RPS8A]", "protein stability index": "3.4 ± 0.054"}
{"sequence": "RKYEISFGKIYVTKPMV [RPB2]", "protein stability index": "2.16 ± 0.11"}
{"sequence": "RLAKKPSMKKIKIEPSA [SIR3]", "protein stability index": "2.88 ± 0.065"}
{"sequence": "RLGFFYNDQLYVKEKLE [RPN7]", "protein stability index": "3.5 ± 0.087"}
{"sequence": "RLISQSLLASKSTYRTP [RIP1]", "protein stability index": "2.45 ± 0.14"}
{"sequence": "RLMMNSKVGSADTGRDD [RPN11]", "protein stability index": "3.52 ± 0.07"}
{"sequence": "RLNYLYQISAYQTRARQ [RPR2]", "protein stability index": "1.89 ± 0.035"}
{"sequence": "RLQAKRLKDVEWVKLHR [RMP1]", "protein stability index": "2.03 ± 0.062"}
{"sequence": "RLQQGRRLPMTMFTAEQ [SNF2]", "protein stability index": "3.27 ± 0.045"}
{"sequence": "RLRKRVTIIPLDKIYTR [SMC2]", "protein stability index": "1.36 ± 0.051"}
{"sequence": "RLTMGNVFTPEISSQIE [RRI2]", "protein stability index": "2.92 ± 0.09"}
{"sequence": "RLWLKKVMEEEEQDCKC [POP8]", "protein stability index": "2.8 ± 0.083"}
{"sequence": "RMNTIITHPGKMELVYV [SIR4]", "protein stability index": "1.21 ± 0.24"}
{"sequence": "RMPIMLRSNKCILYDAD [RET1]", "protein stability index": "1.77 ± 0.095"}
{"sequence": "RMRFPPFDDDEPPLSYE [PRP8]", "protein stability index": "2.61 ± 0.034"}
{"sequence": "RMRNRALREMRKSDQQD [POP1]", "protein stability index": "3.13 ± 0.13"}
{"sequence": "RMRVSVLEKYEVIGYIA [SSN3]", "protein stability index": "1.15 ± 0.049"}
{"sequence": "RMSYGSHDKKTKCSTVV [SRP14]", "protein stability index": "3.33 ± 0.088"}
{"sequence": "RNEQVTIELKNGTTVWG [SMD1]", "protein stability index": "1.16 ± 0.094"}
{"sequence": "RNEVLESMDFLVLADAF [YCS4]", "protein stability index": "2.72 ± 0.048"}
{"sequence": "RNFDTHENYIQDDDFPL [MCD1]", "protein stability index": "2.91 ± 0.045"}
{"sequence": "RNLQMGLRNQNMVRNNN [GRR1]", "protein stability index": "2.54 ± 0.055"}
{"sequence": "RNMIIVPEMIGSVVGIY [RPS15]", "protein stability index": "1.45 ± 0.057"}
{"sequence": "RNNFLAENSHTQPKATS [PUP1]", "protein stability index": "3.13 ± 0.04"}
{"sequence": "RNRGKIHSGVLSSIESD [YMR153W/NUP53]", "protein stability index": "2.94 ± 0.087"}
{"sequence": "RNSYPASFYSVNTEKKT [RPN3]", "protein stability index": "3.46 ± 0.14"}
{"sequence": "RNTYQSAMGKQAMGVFL [RPB2]", "protein stability index": "1.79 ± 0.052"}
{"sequence": "RPDITMYCRPAPSDFSE [GRR1]", "protein stability index": "2.17 ± 0.076"}
{"sequence": "RPKKITGWITQSTPVLL [RPN1]", "protein stability index": "2.18 ± 0.035"}
{"sequence": "RPLKLERGFACIPLVGI [FAS1]", "protein stability index": "1.69 ± 0.048"}
{"sequence": "RPPNGIKNFKSLLLSSS [SSN2]", "protein stability index": "1.48 ± 0.037"}
{"sequence": "RPPVKAILQEKILSILN [ECM29]", "protein stability index": "2 ± 0.11"}
{"sequence": "RQCFQDNCCDFKVRTNL [MED1]", "protein stability index": "3.21 ± 0.038"}
{"sequence": "RQDGSYTYHSTNKDNKA [ARP9]", "protein stability index": "2.64 ± 0.056"}
{"sequence": "RQEVTKFAKANIGYVMG [RPN4]", "protein stability index": "1.14 ± 0.065"}
{"sequence": "RQFSNEEVNRCYLRWQH [SNF2]", "protein stability index": "3.01 ± 0.071"}
{"sequence": "RQINKLIDSLPGVDVSA [SRB7]", "protein stability index": "1.9 ± 0.038"}
{"sequence": "RQIRPIMERIKSSLSLR [ITC1]", "protein stability index": "1.42 ± 0.054"}
{"sequence": "RQKINGCEANIHSLVKQ [YIL149C/MLP2]", "protein stability index": "2.79 ± 0.21"}
{"sequence": "RQLQYETLGDILKRDFE [ECM29]", "protein stability index": "3.02 ± 0.087"}
{"sequence": "RQRELLIAHQRSAWNNN [GRR1]", "protein stability index": "2.16 ± 0.035"}
{"sequence": "RQSSDESDNYRLLPNGS [YML031W/NDC1]", "protein stability index": "3.05 ± 0.054"}
{"sequence": "RQTTSNTGLLNKANIQA [RPN11]", "protein stability index": "3.19 ± 0.07"}
{"sequence": "RRKTTKQNSSSDINQND [YDL088C/ASM4]", "protein stability index": "2.95 ± 0.059"}
{"sequence": "RRMAFKPFGSAKSDETK [YLR335W/NUP2]", "protein stability index": "2.08 ± 0.054"}
{"sequence": "RRWNKLCTLNDSKGSLY [YGL100W/SEH1]", "protein stability index": "3.1 ± 0.046"}
{"sequence": "RRYKLLTATPNSINKTT [POP1]", "protein stability index": "2.52 ± 0.042"}
{"sequence": "RSALEKGSRFISTLQVK [RPB2]", "protein stability index": "1.6 ± 0.088"}
{"sequence": "RSISEPSINLDPDNTSF [ESC2]", "protein stability index": "3.165 ± 0.031"}
{"sequence": "RSKFGGDFLDFQVHERL [ARP7]", "protein stability index": "3.32 ± 0.075"}
{"sequence": "RSPEEIRRTFNIVNDFT [SKP1]", "protein stability index": "2.12 ± 0.04"}
{"sequence": "RSRKTVKAQRPITGASL [RPL24A]", "protein stability index": "3.24 ± 0.088"}
{"sequence": "RSRYRREIDALKKQLHV [YIL149C/MLP2]", "protein stability index": "3.2 ± 0.036"}
{"sequence": "RTDQYTIDNIDSENFSF [YMR129W/POM152]", "protein stability index": "3.01 ± 0.036"}
{"sequence": "RTGPKALPDAVTIIEPK [RPS3]", "protein stability index": "3.09 ± 0.06"}
{"sequence": "RTKNLVSKMEKAEKTLK [SMC4]", "protein stability index": "3.09 ± 0.058"}
{"sequence": "RTMYFILDGQDVEENRS [YJR042W/NUP85]", "protein stability index": "3.23 ± 0.044"}
{"sequence": "RTPVIISLRNNHKIIAR [SMD2]", "protein stability index": "1.81 ± 0.044"}
{"sequence": "RTQPWSIMPDLYFYRDP [RPS0A]", "protein stability index": "2.6 ± 0.055"}
{"sequence": "RTVAGFSNVELPQCIIP [ARP7]", "protein stability index": "2.7 ± 0.034"}
{"sequence": "RVLQLLAVIMDNIGEID [YCG1]", "protein stability index": "1.52 ± 0.046"}
{"sequence": "RVRNKDIRKFLDGIYVS [RPL9A]", "protein stability index": "2.23 ± 0.062"}
{"sequence": "RVRVTGGGHVSQVYAIR [RPS16A]", "protein stability index": "2.76 ± 0.031"}
{"sequence": "RYQIMLPEQLKSGKFCS [SNM1]", "protein stability index": "2.12 ± 0.061"}
{"sequence": "SAAELERLDKDKDRDTR [SNF5]", "protein stability index": "2.95 ± 0.11"}
{"sequence": "SADDDVNNGNIPSQRGT [SIR3]", "protein stability index": "2.86 ± 0.11"}
{"sequence": "SAFMKFSKAIEWDMLNV [BRR2]", "protein stability index": "2.04 ± 0.045"}
{"sequence": "SAIEHTTLKSVTIASEI [RPO21]", "protein stability index": "2.16 ± 0.045"}
